By Kd is commonly meant the equilibrium constant for the complex coming apart. Low values mean a tighter complex, high ones a looser complex.

From PMC5628404, “Central catalytic domain of BRAP (RNF52) recognizes the types of ubiquitin chains and utilizes oligo-ubiquitin for ubiquitylation” (Biochemical Journal, 2017) come the findings set out here.

The experiment deals with T1, M1-linked di-ubiquitin chain (M1-Ub2) (human, UniProt P0CG48 1-76; P0CG48 1-76).
T1 construct: ubiquitin unit 1 of 2, joined head to tail (M1 linkage); from polyubiquitin-C (UBC), human; ubiquitin unit 2 of 2, joined head to tail (M1 linkage); One polypeptide of two ubiquitin units joined by a peptide bond G76-M1; also called linear di-ubiquitin; source: E. coli KRX, purified (method of Pickart and Raasi); made in the authors' laboratory
Briefly: SPR; Biacore 3000; ubiquitin monomer or ubiquitin chains amine-coupled to a CM5 chip; BRAP as analyte, serially diluted; 10 mM HEPES-NaOH pH 7.5, 150 mM NaCl, 0.005% surfactant P20; 25°C. Conditions: both partners purified. (In general: In SPR one partner is held on a chip, and binding of the other changes the refractive index at the surface.)

B1: BRAP (1–592) (full-length) (natural protein, human, UniProt Q7Z569 1-592, looked up)
chain: MSVSLVVIRLELAEHSPVPAGFGFSAAAGEMSDEEIKKTTLASAVACLEGKSPGEKVAIIHQHLGRREMTDVIIETMKSNPDELKTTVEERKSSEASPTAQRSKDHSKECINAAPDSPSKQLPDQISFFSGNPSVEIVHGIMHLYKTNKMTSLKEDVRRSAMLCILTVPAAMTSHDLMKFVAPFNEVIEQMKIIRDSTPNQYMVLIKFRAQADADSFYMTCNGRQFNSIEDDVCQLVYVERAEVLKSEDGASLPVMDLTELPKCTVCLERMDESVNGILTTLCNHSFHSQCLQRWDDTTCPVCRYCQTPEPVEENKCFECGVQENLWICLICGHIGCGRYVSRHAYKHFEETQHTYAMQLTNHRVWDYAGDNYVHRLVASKTDGKIVQYECEGDTCQEEKIDALQLEYSYLLTSQLESQRIYWENKIVRIEKDTAEEINNMKTKFKETIEKCDNLEHKLNDLLKEKQSVERKCTQLNTKVAKLTNELKEEQEMNKCLRANQVLLQNKLKEEERVLKETCDQKDLQITEIQEQLRDVMFYLETQQKINHLPAETRQEIQEGQINIAMASASSPASSGGSGKLPSRKGRSKRGK
notes: The construct had the tag, a TEV site and a GSSGSSG linker at the N-terminus; after TEV cleavage the linker probably stays on the protein (surmised); also called full-length BRAP; BRAP2; source: cell-free synthesis in E. coli S30 extract, zinc supplemented; purified (MBPTrap, TEV cleavage, ion exchange, gel filtration); not shown: MBP, N-terminal, cleaved
Consider B1, for which the binding result is on record as “binds”.

B2: BRAP (124–569) (RNF52 domain) (domain or fragment, human, UniProt Q7Z569 124-569, looked up)
chain: DQISFFSGNPSVEIVHGIMHLYKTNKMTSLKEDVRRSAMLCILTVPAAMTSHDLMKFVAPFNEVIEQMKIIRDSTPNQYMVLIKFRAQADADSFYMTCNGRQFNSIEDDVCQLVYVERAEVLKSEDGASLPVMDLTELPKCTVCLERMDESVNGILTTLCNHSFHSQCLQRWDDTTCPVCRYCQTPEPVEENKCFECGVQENLWICLICGHIGCGRYVSRHAYKHFEETQHTYAMQLTNHRVWDYAGDNYVHRLVASKTDGKIVQYECEGDTCQEEKIDALQLEYSYLLTSQLESQRIYWENKIVRIEKDTAEEINNMKTKFKETIEKCDNLEHKLNDLLKEKQSVERKCTQLNTKVAKLTNELKEEQEMNKCLRANQVLLQNKLKEEERVLKETCDQKDLQITEIQEQLRDVMFYLETQQKINHLPAETRQEIQEGQINIAMASA
notes: The construct had the tag, a TEV site and a GSSGSSG linker at the N-terminus; after TEV cleavage the linker probably stays on the protein (surmised); also called RNF52 domain of BRAP; central catalytic domain of BRAP; source: cell-free synthesis in E. coli S30 extract, zinc supplemented; purified (HisTrap, TEV cleavage, ion exchange, gel filtration)
As to B2, the affinity, expressed as Kd, was 95.1 nM.
